Experimental data reported in publication PMC6391071, “Mechanisms of opening and closing of the bacterial replicative helicase” (eLife, 2018).
Several values for one entry are separate records, joined by “and”; a condition that tells them apart may be missing. Equal entries are not always repeated.

B2: Aquifex aeolicus DnaB helicase (enzyme)
chain: LPCDESAERAVLGSMLEDPENIPLVLEYLKEEDFCIDEHKLLFRVLTNLWSEYGNKLDFVLIKDHLEKKNLLQKIPIDWLEELYEEAVSPDTLEEVCKIVKQRSAQRAIIQLGIELIHKGKENKDFHTLIEEAQSRIFSIAESATSTQFYHVKDVAEEVIELIYKFKSSDRLVTGLPSGFTELDLKTTGFHPGDLIILAARPGMGKTAFMLSIIYNLAKDEGKPSAVFSLEMSKEQLVMRLLSMMSEVPLFKIRSGSISNEDLKKLEASAIELAKYDIYLDDTPALTTTDLRIRARKLRKEKEVEFVAVDYLQLLRPPVRKSSRQEEVAEVSRNLKALAKELHIPVMALAQLSREVEKRSDKRPQLADLRESGQIEQDADLILFLHRPEYYKKKPNPEEQGIAEVIIAKQRQGPTDIVKLAFIKEYTKFANLEA
notes: Aquifex aeolicus DnaB replicative helicase; also called AA DnaB; A. aeolicus DnaB; source: E. coli Rosetta (pET24a-AA-DnaB); cells co-lysed with cells expressing AA DnaC; purified as the BC complex (65°C step, heparin sepharose, Q-sepharose, Superdex-200)

Columns and labels:
[1] = molecular target: B2; assay: native MS; co-purified complex at 5 µM, buffer-exchanged into 450 mM ammonium acetate pH 7.5, 0.5 mM magnesium acetate, 0.01% Tween-20; no ssDNA; settings: both partners purified
[2] = molecular target: T1, DnaB replicative helicase;lambda P helicase loader (Escherichia coli;bacteriophage lambda, UniProt P0ACB0;P03689 1-471;1-233, |); assay: native MS; no protein-DNA complex; 450 mM ammonium acetate pH 7.5, 0.5 mM magnesium acetate, 0.01% Tween-20; 5 uM protein, protein:ssDNA 1:1.2, 30 min on ice; settings: protein: recombinant;recombinant; tags: untagged;; chain copies: 6;5; single strand
[3] = molecular target: the molecule itself; assay: native MS; co-purified complex at 5 µM, buffer-exchanged into 450 mM ammonium acetate pH 7.5, 0.5 mM magnesium acetate, 0.01% Tween-20; no ssDNA
[4] = molecular target: T2, Escherichia coli DnaB helicase (Escherichia coli, UniProt P0ACB0 1-471); assay: native MS; BP complex at 5 µM in 450 mM ammonium acetate pH 7.5, 0.5 mM magnesium acetate, 0.01% Tween-20; incubated with the Oriλ-derived 43-mer ssDNA at 1:1.2 for 30 min on ice; settings: both partners purified
T2 construct: E. coli DnaB replicative helicase, full length, untagged; Hexamer; The 6BBM model holds residues 17-471 at most; chain A lacks 167-203; also called EcDnaB; E. coli DnaB; source: E. coli BL21(DE3), co-expressed with λP (pET24-DnaB-EC); purified as the BP complex (ammonium sulfate, Q-sepharose, heparin sepharose, methyl HIC)

[5] = molecular target: T2, Escherichia coli DnaB helicase; assay: native MS; BP sample in 500 mM ammonium acetate, 0.01% Tween-20, without magnesium acetate; settings: both partners purified
[6] = molecular target: T2, Escherichia coli DnaB helicase; assay: native MS; co-purified complex at 5 µM, buffer-exchanged into 450 mM ammonium acetate pH 7.5, 0.5 mM magnesium acetate, 0.01% Tween-20; no ssDNA; settings: both partners purified
[7] = molecular target: T1, DnaB replicative helicase;lambda P …; assay: native MS; B6P5 with one ssDNA, 459.5 kDa; no nucleotide bound; 450 mM ammonium acetate pH 7.5, 0.5 mM magnesium acetate, 0.01% Tween-20; 5 uM protein, protein:ssDNA 1:1.2, 30 min on ice; settings: protein: recombinant;recombinant; tags: untagged;; chain copies: 6;5; single strand

T1 sequence (P0ACB0 whole entry, one chain of several): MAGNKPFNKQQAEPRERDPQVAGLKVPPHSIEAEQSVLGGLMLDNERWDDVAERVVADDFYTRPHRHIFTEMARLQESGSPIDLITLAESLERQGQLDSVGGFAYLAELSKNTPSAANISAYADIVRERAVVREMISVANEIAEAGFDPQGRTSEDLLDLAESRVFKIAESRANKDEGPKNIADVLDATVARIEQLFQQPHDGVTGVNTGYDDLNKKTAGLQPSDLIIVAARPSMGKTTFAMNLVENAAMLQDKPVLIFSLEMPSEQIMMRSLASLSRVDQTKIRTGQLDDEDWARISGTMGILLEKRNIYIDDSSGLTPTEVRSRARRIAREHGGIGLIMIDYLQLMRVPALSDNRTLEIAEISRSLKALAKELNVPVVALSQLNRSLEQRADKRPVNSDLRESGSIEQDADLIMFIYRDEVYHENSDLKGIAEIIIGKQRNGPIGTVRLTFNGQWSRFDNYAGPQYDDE
T2 sequence (P0ACB0 whole entry, the tested form may be a part): as the sequence (P0ACB0 whole entry, one chain of several) above

B1: Aquifex aeolicus DnaC helicase loader (natural protein, UniProt O67056 1-235, looked up)
chain: MQDTATCSICQGTGFVKTEDNKVRLCECRFKKRDVNRELNIPKRYWNANLDTYHPKNVSQNRALLTIRVFVHNFNPEEGKGLTFVGSPGVGKTHLAVATLKAIYEKKGIRGYFFDTKDLIFRLKHLMDEGKDTKFLKTVLNSPVLVLDDLGSERLSDWQRELISYIITYRYNNLKSTIITTNYSLQREEESSVRISADLASRLGENVVSKIYEMNELLVIKGSDLRKSKKLSTPS
notes: Aquifex aeolicus DnaC helicase loader; Six copies stand in the complex with the DnaB hexamer; also called AA DnaC; A. aeolicus DnaC; source: E. coli Rosetta (pET24a-AA-DnaC); cells co-lysed with cells expressing AA DnaB; purified as the BC complex (65°C step, heparin sepharose, Q-sepharose, Superdex-200)
[1]
  stoichiometry N: 6 DnaC per DnaB hexamer

## TTTTTTTTTTTTTTTTTTTTTTTTTTTTTTTTTTT (ssDNA) [T35]
[2]
  binding result: no binding

## B2
[3]
  stoichiometry N: 6 subunits

## TTTTTTTTTTTTTTTTTTTTTTTTTTTTTTTTTTTTTTTTTTTTT (ssDNA) [T45]
[2]
  binding result: no binding

B3: bacteriophage λP helicase loader (natural protein, UniProt P03689 1-233, looked up)
chain: MKNIAAQMVNFDREQMRRIANNMPEQYDEKPQVQQVAQIINGVFSQLLATFPASLANRDQNEVNEIRRQWVLAFRENGITTMEQVNAGMRVARRQNRPFLPSPGQFVAWCREEASVTAGLPNVSELVDMVYEYCRKRGLYPDAESYPWKSNAHYWLVTNLYQNMRANALTDAELRRKAADELVHMTARINRGEAIPEPVKQLPVMGGRPLNRAQALAKIAEIKAKFGLKGASV
notes: bacteriophage λ replication protein P (helicase loader), full length, 233 residues, 26,518 Da, untagged; Five copies stand in the predominant complex with the DnaB hexamer; The 6BBM model of λP has no side chains and covers about residues 109-233; also called lambdaP; LP; source: E. coli BL21(DE3), co-expressed with DnaB (pCDFDuet-λP); purified as the BP complex (ammonium sulfate, Q-sepharose, …)
[4]
  stoichiometry N: 5 λP per DnaB hexamer
[5]
  stoichiometry N: 5 λP per DnaB hexamer and 6 λP per DnaB hexamer and 4 λP per DnaB hexamer
[6]
  stoichiometry N: 5 λP per DnaB hexamer and 6 λP per DnaB hexamer and 4 λP per DnaB hexamer

## TGACGAATAATCTTTTCTTTTTTCTTTTGTAATAGTGTCTTTT (ssDNA) [ori-lambda DUE 43-mer]
[7]
  binding result: binds

## TTTTTTTTTTTTTTTTTTTTTTTTT (ssDNA) [T25]
[2]
  binding result: no binding
